Measured values: patent US6982082 (Harvard, dated 2006)

Experiments:
[1] = biological target: CypAgtm (S99T, F113G, C115M) with N-terminal FLAG epitope tag, expressed from pBJ5 in Jurkat cells (UniProt P62937 1-165); test: cell-based or functional assay
[2] = biological target: CypA wild type with N-terminal FLAG epitope tag, expressed from pBJ5 in Jurkat cells (UniProt P62937 1-165); test: cell-based or functional assay
Chain of CypA wild type with N-terminal FLAG epitope tag, expressed from pBJ5 in Jurkat cells (P62937 whole entry): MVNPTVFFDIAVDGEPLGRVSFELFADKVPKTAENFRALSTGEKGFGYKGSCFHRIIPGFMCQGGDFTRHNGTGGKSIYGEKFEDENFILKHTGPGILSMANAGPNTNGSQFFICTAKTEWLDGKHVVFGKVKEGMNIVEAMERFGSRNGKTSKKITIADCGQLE

Chain of CypAgtm (S99T, F113G, C115M) with N-terminal FLAG epitope tag, expressed from pBJ5 in Jurkat cells (P62937 whole entry S99T/F113G/C115M): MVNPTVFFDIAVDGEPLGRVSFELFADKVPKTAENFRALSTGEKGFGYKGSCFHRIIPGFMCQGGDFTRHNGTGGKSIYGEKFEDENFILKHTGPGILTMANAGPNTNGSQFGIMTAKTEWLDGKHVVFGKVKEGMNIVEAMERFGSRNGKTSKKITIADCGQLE

- IC50 in Cellular NFAT-Signalling [1]: 25 nM
- IC50 in Cellular NFAT-Signalling [2]: > 400 nM
B1: alpha-cyclopentyl, sarcosine11-CsA (CpSar11-CsA) (peptide)
peptide: XXXXXVXAXXX
modifications: head-to-tail cyclic undecapeptide made by cyclising linear peptide 11; residues as printed: CpSar (L-alpha-cyclopentylsarcosine, position 11 of CsA)-MeBmt-Abu-Sar-MeLeu-Val-MeLeu-Ala-D-Ala-MeLeu-MeLeu (N-methylated residues, D-Ala, Abu, MeBmt)
